Data on one substance can be found in patent US20220011297A1, “METHOD FOR PREDICTING EFFECT OF IMMUNE CHECKPOINT INHIBITOR” (NAGASAKI UNIVERSITY, priority 2018, published 2022).

The subject of the series is lung cancer patients. Description: Multicenter study of nivolumab in lung cancer patients: adverse events (interstitial pneumonia).

Description: Multicenter study ([sequence] University Hospital, Nagasaki Genbaku Hospital) [Subjects] Lung cancer patients [Selection criteria]
Employed were patients who had been histologically confirmed to have lung cancer through computed tomography (any T, any N, and M1, stage IV), and
who were 20 to 75 years old with performance status (PS) of 0 and retaining the functions of main tissues, met the study criteria of our institution, and voluntarily submitted a consent form to participate in the study after receiving explanation on the characteristics of the study.
This blood collection is performed concomitantly with regular blood collection during hospitalization, and no additional puncture is performed for the blood collection.

Take “nivolumab: human-type anti-PD-1 monoclonal antibody”: the “interstitial pneumonia with DAD (diffuse alveolar damage), acute exacerbation” value (13 lung cancer patients given nivolumab, other two cases OP) was “TR01 and TR02 were presenting with DAD”. In addition, for the setting “among DAD cases, in spite of discontinuation of administration”, the death entry is listed as “one case resulted in death”.
